Results reported in patent US20210324028A1 (Pfizer, published 2021).
Read-outs that look alike come from different tables or passages of the source. Each block holds one binder with its values, some of them ahead of it.

Assays:
[1] = target: T1, mouse PD-1 on doxycycline-induced 32D[pRF770+pRF791] cells (mouse, UniProt Q02242 25-288); test: flow cytometry, Alexa647-labelled protein on doxycycline-induced 32D[pRF770+pRF791] cells, 4 C 30 min, % A647-positive cells
T1 construct: whole, on cells; also called PD-1+ cells; [pRF770+pRF791]+Dox
T1 sequence (looked up): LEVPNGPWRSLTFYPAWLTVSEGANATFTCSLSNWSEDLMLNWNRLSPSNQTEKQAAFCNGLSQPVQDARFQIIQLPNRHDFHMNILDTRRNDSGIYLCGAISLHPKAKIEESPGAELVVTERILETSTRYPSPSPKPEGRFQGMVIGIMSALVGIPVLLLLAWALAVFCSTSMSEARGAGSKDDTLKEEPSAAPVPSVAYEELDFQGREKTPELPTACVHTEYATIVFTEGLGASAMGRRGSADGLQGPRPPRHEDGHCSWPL
Experimental: (§1) The following cell lines were suspended in growth medium to 0.7*10\hat{ }6 cells/mL and, cultured for 16 hrs: 1) untransduced 32D (parental line); 2) 32D[pRF770+pRF791]; and 3) 32D[pRF770+pRF791] grown in the presence of 1 ug/mL doxycycline, to induce PD-1 expression. Cultures were then resuspended to a final concentration of 1.0*10\hat{ }6 cells/mL, and 0.1 mL of each suspension was plated into separate wells of a 96-well round-bottom plate, of sufficient number required for the experiment. Each Alexa647-labeled antibody or antibody-cytokine chimeric proteins were then added to a unique well to obtain a final concentration of 500 nM, 100 nM, […], 1 nM, 0.1 nM, 0.01 nM, or 0.001 nM in a given well. Plates were incubated at 4° C. for 30′, and then the cells were pelleted by centrifugation (300×g, 5′) and resuspended in 0.2 mL of PBS. This wash step was repeated twice. Upon final resuspension, the cells were analyzed on an LSRII flow cytometer. Data were analyzed using FlowJo version 10.

[2] = target: T2, IL-15 signaling receptor on 32D[pRF770+pRF791] cells (human CD122 plus mouse CD132) (human; mouse, UniProt P14784 27-551; P34902 23-369); test: flow cytometry, Alexa647-labelled protein on uninduced 32D[pRF770+pRF791] cells (human CD122 plus mouse CD132), 4 C 30 min, % A647-positive cells
T2 construct: whole, on cells; also called CD122 plus CD132; PD-1(low) cells
T2 sequence (looked up) 1: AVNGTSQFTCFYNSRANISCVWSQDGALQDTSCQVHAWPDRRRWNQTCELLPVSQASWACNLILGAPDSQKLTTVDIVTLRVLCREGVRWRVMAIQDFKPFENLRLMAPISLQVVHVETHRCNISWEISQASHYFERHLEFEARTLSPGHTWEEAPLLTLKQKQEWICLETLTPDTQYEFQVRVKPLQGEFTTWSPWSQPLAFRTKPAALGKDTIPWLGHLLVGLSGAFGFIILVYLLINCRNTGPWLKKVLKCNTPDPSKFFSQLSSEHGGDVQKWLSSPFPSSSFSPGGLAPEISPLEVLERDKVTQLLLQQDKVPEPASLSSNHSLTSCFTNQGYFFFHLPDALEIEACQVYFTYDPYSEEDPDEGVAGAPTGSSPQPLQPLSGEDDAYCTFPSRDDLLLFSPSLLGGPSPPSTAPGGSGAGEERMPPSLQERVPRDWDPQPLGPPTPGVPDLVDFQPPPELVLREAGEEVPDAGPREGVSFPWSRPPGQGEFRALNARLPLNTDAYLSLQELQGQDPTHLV
T2 sequence (looked up) 2: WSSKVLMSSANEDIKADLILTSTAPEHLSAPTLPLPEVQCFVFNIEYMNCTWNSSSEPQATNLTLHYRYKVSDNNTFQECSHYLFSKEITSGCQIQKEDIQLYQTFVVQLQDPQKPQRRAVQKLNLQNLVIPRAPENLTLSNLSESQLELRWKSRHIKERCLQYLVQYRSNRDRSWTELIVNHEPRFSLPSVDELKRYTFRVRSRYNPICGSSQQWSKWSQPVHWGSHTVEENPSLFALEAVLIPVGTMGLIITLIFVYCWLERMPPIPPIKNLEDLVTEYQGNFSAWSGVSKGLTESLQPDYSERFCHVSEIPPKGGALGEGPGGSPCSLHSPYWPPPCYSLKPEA
Experimental: as §1

[3] = target: T1, mouse PD-1 on doxycycline-induced …; test: cell-based or functional assay
[4] = target: T2, IL-15 signaling receptor on …; test: cell-based or functional assay
[5] = target: T1, mouse PD-1 on doxycycline-induced …; test: cell-based or functional assay; remark: listed apart in the source
[6] = target: T2, IL-15 signaling receptor on …; test: cell-based or functional assay; remark: listed apart in the source
[7] = target: T1, mouse PD-1 on doxycycline-induced …; test: cell-based or functional assay; remark: listed apart in the source
[8] = target: T2, IL-15 signaling receptor on …; test: cell-based or functional assay; remark: listed apart in the source
[9] = target: T1, mouse PD-1 on doxycycline-induced …; test: cell-based or functional assay; remark: listed apart in the source
[10] = target: T2, IL-15 signaling receptor on …; test: cell-based or functional assay; remark: listed apart in the source
[11] = target: T3, human IL-2Rβ (human, UniProt P14784 27-240, limits assumed); test: SPR, steady state, fusion captured
T3 construct: also called hIL-2Rβ; IL-2 receptor beta
T3 sequence (looked up): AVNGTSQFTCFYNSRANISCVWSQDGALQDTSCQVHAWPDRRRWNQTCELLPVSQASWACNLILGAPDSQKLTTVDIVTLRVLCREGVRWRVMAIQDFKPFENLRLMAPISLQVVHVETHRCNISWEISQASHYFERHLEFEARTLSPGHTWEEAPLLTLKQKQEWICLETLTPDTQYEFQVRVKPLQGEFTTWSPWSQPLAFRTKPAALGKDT
Summary of the method: (§2)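 Anti-PD-1–hIL-15 fusions captured at 10 μg/mL on an anti-human Fc surface, receptor injected at 37 °C in HEPES-buffered saline with 0.05% Tween-20 and 1 mg/mL BSA, pH 7.4; 5 min dissociation.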

[12] = target: T4, human IL-15Rα (human, UniProt Q13261 31-205, limits assumed); test: SPR 37C, fusion captured by anti-human Fc
T4 construct: also called hIL-15Rα; IL-15 receptor alpha
T4 sequence (Q13261 31-205 limits assumed): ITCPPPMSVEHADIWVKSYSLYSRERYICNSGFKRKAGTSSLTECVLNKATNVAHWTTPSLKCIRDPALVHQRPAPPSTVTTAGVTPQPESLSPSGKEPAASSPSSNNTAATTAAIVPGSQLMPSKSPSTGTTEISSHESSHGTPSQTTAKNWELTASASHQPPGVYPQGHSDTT
Summary of the method: as §2

[13] = target: T1, mouse PD-1 on doxycycline-induced …; test: flow cytometry, Alexa647-labelled protein on doxycycline-induced 32D[pRF770+pRF791] cells (mouse PD-1 together with CD122 plus CD132), 4 C 30 min, % A647-positive cells
Experimental: as §1

[14] = target: T3, human IL-2Rβ; test: SPR, fusion captured
Summary of the method: as §2

EC50 (read off the curve) [1]: ~0.03 nM
binding result [2]: no binding (tested: 500 nM)
B1: xmPD-1 (antibody, human IgG2, kappa, V domains shown)
VH: EVQLVESGGGLVKPGGSLELSCAASGFTFSSYWMSWVRQAPEKGLEWVAAISPSGGSTYYADSVKGRFTISRDNAKNTLFLQMTSLRSEDTAMYYCAKESWGAYYDLWGQGTTVTVSS
VL: DIVMTQSPSSLSVSAGDKVTMSCRASQGISSWLAWYQQKPWQPPKLLIYKASTLESGVPDRFTGSGSGTDFTLTISSVQAEDLAVYYCQQSYSTPWTFGGGTKLEIKG
notes: human IgG2dA constant regions; also called anti-mouse PD-1 antibody; clone F12.3

Fold change = EC50 (PD-1(low))/EC50 (PD-1+) [3]: 223 fold
pSTAT5 EC50 on PD-1+ 32D reporter cells [3]: 90 pM
pSTAT5 EC50 on PD-1(low) 32D reporter cells [4]: 21.1 nM
Fold change = EC50 (PD-1(low))/EC50 (PD-1+) [5]: 300 fold
pSTAT5 EC50 on PD-1+ 32D reporter cells [5]: 5.74 pM
pSTAT5 EC50 on PD-1(low) 32D reporter cells [6]: 1.72 nM
Fold change = EC50 (PD-1(low))/EC50 (PD-1+) [7]: 241 fold
pSTAT5 EC50 on PD-1+ 32D reporter cells [7]: 30.3 pM
pSTAT5 EC50 on PD-1(low) 32D reporter cells [8]: 7.29 nM
Fold change = EC50 (PD-1(low))/EC50 (PD-1+) [9]: 1230 fold
pSTAT5 EC50 on PD-1+ 32D reporter cells [9]: 10.9 pM
pSTAT5 EC50 on PD-1(low) 32D reporter cells [10]: 13.3 nM
Kd [11]: 518 nM
binding result [12]: no binding (tested: 3000 nM)
EC50 (read off the curve) [13]: ~0.03 nM
B2: xmPD-1-hIL15 NQ mutant (other)
heavy 1: HHHHHHHHGGGGSGSGGEVQLVESGGGLVKPGGSLELSCAASGFTFSSYWMSWVRQAPEKGLEWVAAISPSGGSTYYADSVKGRFTISRDNAKNTLFLQMTSLRSEDTAMYYCAKESWGAYYDLWGQGTTVTVSSASTKGPSVFPLAPCSRSTSESTAALGCLVKDYFPEPVTVSWNSGALTSGVHTFPAVLQSSGLYSLSSVVTVPSSNFGTQTYTCNVDHKPSNTKVDKTVERKCRVRCPRCPAPPVAGPSVFLFPPKPKDTLMISRTPEVTCVVVAVSHEDPEVQFNWYVDGVEVHNAKTKPREEQFNSTFRVVSVLTVVHQDWLNGKEYKCKVSNKGLPSSIEKTISKTKGQPREPQVYTLPPSREEMTKNQVSLTCLVKGFYPSDIAVEWESNGQPENNYKTTPPMLDSDGSFFLYSRLTVDKSRWQQGNVFSCSVMHEALHNHYTQKSLSLSPGK
heavy 2: EVQLVESGGGLVKPGGSLELSCAASGFTFSSYWMSWVRQAPEKGLEWVAAISPSGGSTYYADSVKGRFTISRDNAKNTLFLQMTSLRSEDTAMYYCAKESWGAYYDLWGQGTTVTVSSASTKGPSVFPLAPCSRSTSESTAALGCLVKDYFPEPVTVSWNSGALTSGVHTFPAVLQSSGLYSLSSVVTVPSSNFGTQTYTCNVDHKPSNTKVDKTVERKCEVECPECPAPPVAGPSVFLFPPKPKDTLMISRTPEVTCVVVAVSHEDPEVQFNWYVDGVEVHNAKTKPREEQFNSTFRVVSVLTVVHQDWLNGKEYKCKVSNKGLPSSIEKTISKTKGQPREPQVYTLPPSREEMTKNQVSLTCEVKGFYPSDIAVEWESNGQPENNYKTTPPMLDSDGSFFLYSKLTVDKSRWQQGNVFSCSVMHEALHNHYTQKSLSLSPGSGGGGGTATATPGANWVNVISDLKKIEDLIQSMHINATLFTESDVHPSCKVTAMKCFLLQLQVISLQSGDASIHDTVENLIILANNSLSSNGNVTESGCKECQELEQKNIKEFLQSFVHIVQMFINT
light: DIVMTQSPSSLSVSAGDKVTMSCRASQGISSWLAWYQQKPWQPPKLLIYKASTLESGVPDRFTGSGSGTDFTLTISSVQAEDLAVYYCQQSYSTPWTFGGGTKLEIKGTVAAPSVFIFPPSDEQLKSGTASVVCLLNNFYPREAKVQWKVDNALQSGNSQESVTEQDSKDSTYSLSSTLTLSKADYEKHKVYACEVTHQGLSSPVTKSFNRGEC
notes: also called xmPD-1-IL15 NQ; xmPD1-IL15 NQ

Kd [14]: > 1500 nM
Fold change = EC50 (PD-1(low))/EC50 (PD-1+) [7]: 382 fold
pSTAT5 EC50 on PD-1+ 32D reporter cells [7]: 56.1 pM
pSTAT5 EC50 on PD-1(low) 32D reporter cells [8]: 21.4 nM
binding result [12]: no binding (tested: 3000 nM)
B3: xmPD-1-hIL15 V49R/Y26K/E64Q/D30N (other)
heavy 1: B2 heavy 1
heavy 2: EVQLVESGGGLVKPGGSLELSCAASGFTFSSYWMSWVRQAPEKGLEWVAAISPSGGSTYYADSVKGRFTISRDNAKNTLFLQMTSLRSEDTAMYYCAKESWGAYYDLWGQGTTVTVSSASTKGPSVFPLAPCSRSTSESTAALGCLVKDYFPEPVTVSWNSGALTSGVHTFPAVLQSSGLYSLSSVVTVPSSNFGTQTYTCNVDHKPSNTKVDKTVERKCEVECPECPAPPVAGPSVFLFPPKPKDTLMISRTPEVTCVVVAVSHEDPEVQFNWYVDGVEVHNAKTKPREEQFNSTFRVVSVLTVVHQDWLNGKEYKCKVSNKGLPSSIEKTISKTKGQPREPQVYTLPPSREEMTKNQVSLTCEVKGFYPSDIAVEWESNGQPENNYKTTPPMLDSDGSFFLYSKLTVDKSRWQQGNVFSCSVMHEALHNHYTQKSLSLSPGSGGGGGTSATATPGANWVNVISDLKKIEDLIQSMHIDATLKTESNVHPSCKVTAMKCFLLELQRISLESGDASIHDTVQNLIILANNSLSSNGNVTESGCKECEELEEKNIKEFLQSFVHIVQMFINT
light: B2 light
notes: not restated for this mutant; also called xmPD1 -V49R/Y26K/E64Q/D30N
